Measured values reported in publication PMC5498717, “Linking functions: an additional role for an intrinsically disordered linker domain in the transcriptional coactivator CBP” (Scientific Reports, 2017).

Target: the molecule itself
Assay: cross-linking; BS3 0.25 mM, 15 min at RT in PBS with 1 mM DTT, proteins mixed about 1:1; SDS-PAGE, anti-His and anti-GST Western blots

B1: ZFP106-f (residues 1265-1521 of ZFP106), His-tagged (domain or fragment, human, UniProt Q9H2Y7 1265-1521, looked up)
chain: KFSVEQRNTRNRENSPSSQSAGLSSINKEGEEPTKGNSGSEACTSSFLRLSFASETPLEKEPHSPADQPEQQAESTLTSAETRGSKKKKKLRKKKSLRAAHVPENSDTEQDVLTVKPVRKVKAGKLIKGGKVTTSTWEDSRTGREQESVRDEPDSDSSLEVLEIPNPQLEVVAIDSSESGEEKPDSPSKKDIWNSTEQNPLETSRSGCDEVSSTSEIGTRYKDGIPVSVAETQTVISSIKGSKNSSEISSEPGDDDE
notes: The His tag is named for the cross-linking and detected by anti-His blot there and in the acetylation assays; also called wt ZFP106-f; His-tagged ZFP106-f
For B1, the “stoichiometry N” value was 2.
